The target in assay [1] is T1, Human VSIG4-L-CHO (human VSIG4 long isoform on CHO-K1 cells) (human, UniProt Q9Y279 20-399).
T1 construct: also called hVSIG4-L (flow cytometry)
T1 sequence: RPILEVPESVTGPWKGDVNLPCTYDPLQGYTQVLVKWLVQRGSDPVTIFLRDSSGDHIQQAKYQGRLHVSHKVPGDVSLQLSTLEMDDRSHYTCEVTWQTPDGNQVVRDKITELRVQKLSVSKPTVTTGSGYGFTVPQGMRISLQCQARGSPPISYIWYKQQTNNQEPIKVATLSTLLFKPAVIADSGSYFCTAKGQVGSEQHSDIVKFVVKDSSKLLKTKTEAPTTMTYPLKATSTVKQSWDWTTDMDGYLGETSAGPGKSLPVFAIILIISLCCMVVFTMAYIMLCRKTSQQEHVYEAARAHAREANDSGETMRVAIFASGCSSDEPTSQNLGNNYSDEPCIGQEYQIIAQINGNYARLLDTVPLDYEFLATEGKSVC
The assay can be described thus: flow cytometry (FJB), 200 nM mAb, huVSIG4-L CHO-K1 cells.

Assay [2] addresses T2, Human VSIG4-L-Fc (human).
T2 construct: also called hVSIG4-L-Fc; hVSIG4-L
The assay can be described thus: ligand blocking of C3b, IgG.

The target of assay [3] is T3, Cynomolgus Monkey VSIG4-L-His (cynomolgus monkey).
T3 construct: ECD with His tag; also called cyVSIG4-L; cyno VSIG4-L-His
T3 chain: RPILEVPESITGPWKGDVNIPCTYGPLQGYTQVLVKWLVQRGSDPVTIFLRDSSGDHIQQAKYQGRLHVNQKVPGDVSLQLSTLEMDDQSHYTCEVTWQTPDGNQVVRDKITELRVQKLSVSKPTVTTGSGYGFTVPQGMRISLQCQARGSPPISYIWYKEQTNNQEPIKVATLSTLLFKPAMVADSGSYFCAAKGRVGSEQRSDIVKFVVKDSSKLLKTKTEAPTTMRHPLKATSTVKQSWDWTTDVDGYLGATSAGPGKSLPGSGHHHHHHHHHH
The assay can be described thus: SPR (FJB).

In assay [4] the target is T4, Human VSIG4-L-His (human, UniProt Q9Y279 20-283).
T4 construct: long isoform ECD with His tag; also called hVSIG4-L
T4 sequence: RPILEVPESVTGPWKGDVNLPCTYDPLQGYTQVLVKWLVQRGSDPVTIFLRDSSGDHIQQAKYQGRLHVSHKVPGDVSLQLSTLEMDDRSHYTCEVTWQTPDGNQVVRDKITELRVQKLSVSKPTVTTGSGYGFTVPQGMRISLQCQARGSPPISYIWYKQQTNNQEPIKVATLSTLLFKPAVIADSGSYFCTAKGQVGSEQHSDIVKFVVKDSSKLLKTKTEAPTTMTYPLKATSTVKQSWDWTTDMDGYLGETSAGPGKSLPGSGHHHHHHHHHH
The assay can be described thus: SPR (FJB).

Assay [5] deals with T2, Human VSIG4-L-Fc. The assay can be described thus: ligand competition ELISA (FJB), blocked ligand C3b.
The target in assay [6] is T3, Cynomolgus Monkey VSIG4-L-His. The assay can be described thus: ELISA, IgG 50 nM on coated antigen.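 Note: Mouse-human chimeric IgG4 antibodies incubated 1 h on plate-coated VSIG4 proteins, bound IgG detected with HRP-labelled anti-human IgG, irrelevant antibody and protein as specificity controls.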
Assay [7] has as its target T2, Human VSIG4-L-Fc. The assay can be described thus: ELISA, IgG 50 nM on coated antigen.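 Note: Mouse-human chimeric IgG4 antibodies incubated 1 h on plate-coated VSIG4 proteins, bound IgG detected with HRP-labelled anti-human IgG, irrelevant antibody and protein as specificity controls.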
Assay [8] concerns the target T5, Mouse VSIG4-His (mouse).
T5 construct: ECD with His tag; also called mVSIG4
T5 chain: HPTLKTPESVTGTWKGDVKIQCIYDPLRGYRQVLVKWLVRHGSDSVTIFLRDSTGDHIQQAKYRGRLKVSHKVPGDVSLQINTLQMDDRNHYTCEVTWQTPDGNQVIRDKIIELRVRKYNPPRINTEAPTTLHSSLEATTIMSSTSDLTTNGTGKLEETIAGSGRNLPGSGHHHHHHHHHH
The assay can be described thus: ELISA, IgG 50 nM on coated antigen.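 Note: Mouse-human chimeric IgG4 antibodies incubated 1 h on plate-coated VSIG4 proteins, bound IgG detected with HRP-labelled anti-human IgG, irrelevant antibody and protein as specificity controls.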

For assay [9], the target named is T6, Human VSIG4-S-Fc (human).
T6 construct: short isoform ECD fused to human Fc1; also called hVSIG4-S
T6 sequence (chain, as listed by the source limits assumed): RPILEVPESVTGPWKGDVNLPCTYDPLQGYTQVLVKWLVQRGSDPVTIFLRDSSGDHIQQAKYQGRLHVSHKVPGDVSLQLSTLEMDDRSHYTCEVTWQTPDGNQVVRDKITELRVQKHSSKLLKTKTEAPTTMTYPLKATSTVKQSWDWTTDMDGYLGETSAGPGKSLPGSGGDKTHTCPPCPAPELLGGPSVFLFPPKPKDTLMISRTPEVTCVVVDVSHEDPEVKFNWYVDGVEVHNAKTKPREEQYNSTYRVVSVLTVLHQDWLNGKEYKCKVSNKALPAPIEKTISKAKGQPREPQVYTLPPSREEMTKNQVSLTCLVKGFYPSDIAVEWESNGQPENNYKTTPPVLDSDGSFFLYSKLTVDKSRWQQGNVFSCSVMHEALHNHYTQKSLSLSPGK
The assay can be described thus: ELISA, IgG 50 nM on coated antigen.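 Note: Mouse-human chimeric IgG4 antibodies incubated 1 h on plate-coated VSIG4 proteins, bound IgG detected with HRP-labelled anti-human IgG, irrelevant antibody and protein as specificity controls.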

The target in assay [10] is T1, Human VSIG4-L-CHO (human VSIG4 long …). The assay can be described thus: flow cytometry (FJB), 200 nM mAb, huVSIG4-L CHO-K1 over parental CHO-K1.
In assay [11] the target is T2, Human VSIG4-L-Fc. The assay can be described thus: BLI binning on hVSIG4-L-Fc, competitor 14D12 first.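 Note: normalized to binding of second antibody without first competitor antibody.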
Assay [12] deals with T2, Human VSIG4-L-Fc. The assay can be described thus: BLI binning on hVSIG4-L-Fc, competitor 16E10 first.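 Note: normalized to binding of second antibody without first competitor antibody.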
The target of assay [13] is T3, Cynomolgus Monkey VSIG4-L-His. The assay can be described thus: BLI (Octet), IgG on AHC sensor, antigen 100 nM.
Assay [14] concerns the target T7, Human VSIG4-S-His (human, UniProt Q9Y279 20-283).
T7 construct: short isoform ECD with His tag; also called hVSIG4-S; VISG4-S-His
T7 sequence: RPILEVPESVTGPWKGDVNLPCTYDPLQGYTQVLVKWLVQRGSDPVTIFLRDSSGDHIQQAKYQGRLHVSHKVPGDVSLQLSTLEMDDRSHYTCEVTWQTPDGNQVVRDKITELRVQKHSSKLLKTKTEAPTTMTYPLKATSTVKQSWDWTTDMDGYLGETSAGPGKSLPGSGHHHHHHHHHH
The assay can be described thus: BLI (Octet), IgG on AHC sensor, antigen 100 nM.

In assay [15] the target is T4, Human VSIG4-L-His. The assay can be described thus: BLI (Octet), IgG on AHC sensor, antigen 100 nM.
Assay [16] deals with T2, Human VSIG4-L-Fc. The assay can be described thus: ligand blocking of iC3b, IgG.
Assay [17] has as its target T3, Cynomolgus Monkey VSIG4-L-His. The assay can be described thus: BLI, IgG on AHC sensor, antigen 100 nM.
Assay [18] addresses T4, Human VSIG4-L-His. The assay can be described thus: BLI, IgG on AHC sensor, antigen 100 nM.
In assay [19] the target is T2, Human VSIG4-L-Fc. The assay can be described thus: BLI binning on hVSIG4-L-Fc, competitor 12A08 first.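 Note: normalized to binding of second antibody without first competitor antibody.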
Assay [20] concerns the target T2, Human VSIG4-L-Fc. The assay can be described thus: BLI cross-blocking on hVSIG4-L-Fc, competitor 16G02 first.

B1: 12A12 mouse/human chimeric IgG4 (S228P) kappa (antibody, V domains shown)
VH: QVQMKQSGAELAKPGASVKMSCKASGYTFTNYWMHWVKQRPGQGLEWIGYINPSTGYTDYNQNFKDRATLTADKSSSTAYMQLSSLTSEDSAVYYCIRGSDYYGRDYWGQGTTLTVSS
VL: DIQMTQTTSSLSASLGDRVTISCRASQDISNYLNWYQQKPDGTLKLLIYYTSRLHSGVPSRFSGSGSGTDYSLTISNLEQEDIATYFCRQGNTLPWTFGGGTKLEIKR
On to B1, for which the “Binding (200 nM) MFI” value in assay [1] is 106000 MFI. Moreover, the “Percent Blocking C3b” value in [2] is 96%. In addition, the dissociation constant (Kd) came to 6.8 nM in assay [3]; 8.6 nM in assay [4]; 19.5 nM in assay [13]; 15.8 nM in assay [14]; 19.1 nM in assay [15]. For the same molecule, in [5], the half-maximal inhibitory concentration (IC50) came to 0.9 nM. For the same molecule, the “ELISA OD450” value in [6] stood at 4.4 OD450; in assay [7], 4.45 OD450; in assay [8] it was 0.054 OD450; in assay [9] it was 4.18 OD450. For the same molecule, the “Binding (200 nM) Fold-Over-Parental” value in assay [10] came to 291 fold. The “normalized maximum binding nm shift” value turned out to be 0.7 normalized in assay [11], 0.62 normalized in [12] and 0.86 normalized in assay [19]. The “Percent Blocking iC3b” value in assay [16] worked out at 98%. Further, the “KD relative to parental chimera” value in assay [17] and in [18] was 1 fold in each case. For the same molecule, in assay [20], the “binding signal (nm shift)” value is 0.16 nm.

The values are drawn from patent publication US20230348603A1 (VERSEAU THERAPEUTICS, published 2023).
